Results reported in PMC5544353.

Biological target: Reconstituted CENP-A chromatin (CENP-A nucleosome arrays with Myc-tagged histone H4) (UniProt Q569M3)
Assay: chromatin-bead binding read by immunofluorescence

UniProt Q569M3, sequence (Q569M3 whole entry, looked up): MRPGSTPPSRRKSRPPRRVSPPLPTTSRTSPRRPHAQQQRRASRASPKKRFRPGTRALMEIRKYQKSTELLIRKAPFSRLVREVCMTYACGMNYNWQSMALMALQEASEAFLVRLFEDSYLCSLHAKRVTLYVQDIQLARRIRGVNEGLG

“Xenopus laevis M18BP1-2, full length (natural protein)” was tested. Which fold enrichment on CENP-A chromatin relative to H3 chromatin did it give?
Its fold enrichment on CENP-A chromatin relative to H3 chromatin is 5 fold.

Which fold enrichment on CENP-A chromatin relative to H3 chromatin does the source give for “Xenopus laevis M18BP1-1 (natural protein)” here?
Its fold enrichment on CENP-A chromatin relative to H3 chromatin is 2.5 fold.

How did the binding as percent of full-length M18BP1-2 turn out when “M18BP1-2 truncation, amino acids 747-944 (in vitro translated) (domain or fragment)” was run?
The binding as percent of full-length M18BP1-2 was 53%.
